Experimental data: patent publication US8557971B2, “Chimeric viral envelopes” (Aarhus Universitet, priority 2006, dated 2013)
Numbering of substitutions follows the chain as printed.

How the values were obtained:
APJ = APJ (Homo sapiens (Human), UniProt P35414); assay: cell-based or functional assay
[1] = biological target: polytropic Xpr1 receptor on NIH3T3 murine cells (murine, UniProt Q9Z0U0); assay: cell-based or functional assay
NIH 3T3 = assay: Titer (transduction) of chimeric envelope constructs on NIH 3T3 cells; assay type: cell-based, mouse; conditions: Titer Experiment 1; NIH 3T3 mouse cells
Procedure: (§1) Transfections were done by calcium phosphate precipitation method, described by Graham and van der Eb (Graham and van der Eb, 1973) leaving the calcium precipitate on the cells for 24 hours. 293T cells were transfected using 8 μg of envelope expression plasmid, 2 μg gagpol expression plasmid (Morita et al., 2000) and 1 μg of an EGFP expressing plasmid. EGFP was included as a visual aid to determine the success of transfections. Medium on the transfected cells was renewed every day until it was used for transduction, usually between 48 and 72 hours after transfection, depending on the number of green fluorescing cells.
(§2) The day before transduction, medium was changed from fetal calf serum to newborn calf serum containing medium. Semi-packaging cells (Bahrami et al., 2003) were seeded at concentration of 10^4 cells/cm^2 24 hours before transduction.
(§3) Supernatant from transfected cells was filtered (0.22μ). The supernatant with 6 μg/mL polybrene was added to the target cells. 24 hours later, the infected cells were selected using medium described before containing 600 μg/mL G418 for 10 days.

NIH 3T3 MCF 247 = assay: Titer on NIH 3T3 cells infected with MCF 247 (blocked polytropic receptor); assay type: cell-based, mouse; conditions: Titer Experiment 1; NIH 3T3 infected with MCF 247
Procedure: FIG. 24. The SL3-2 chimeric envelopes can use two different receptors. […] NIH3T3: Murine cells, NIH3T3+MCF247: murine cells infected with MCF247, thus having a blocked polytropic receptor, D17: Dog cells, D17-APJ: Dog cells expressing APJ, D17-APJ-6 uM Apelin 13: Dog cells expressing APJ incubated with 6 uM apelin-13 peptide for 1 h.
as §1, §2
Supernatant from transfected cells was filtered (0.22μ). The supernatant with 6 μg/mL polybrene was added to the target cells. […]

D17 = assay: Titer on D17 dog cells; assay type: cell-based; conditions: for Titer, D17: Titer Experiment 1, D17 dog cells
Procedure: as §1, §2, §3

D17 APJ = assay: Titer on D17 cells expressing APJ; assay type: cell-based, dog; conditions: for Titer, D17 APJ: Titer Experiment 1, D17 cells expressing APJ
Procedure: as §1, §2, §3
The ability of redirecting the retroviral fusion machinery to a desired receptor would have wide biotechnological and potentially also nanotechnological applications. However, the regulatory mechanisms that interconnect receptor binding with fusion are poorly understood, which has made intelligent engineering of the envelope protein difficult. […] Using the envelope protein of the SL3-2 murine leukemia virus isolate (Pedersen et al., 1981) as a backbone and insertion of the 13 amino acid peptide ligand apelin by structure based design, we achieved efficient membrane fusion in a manner dependent upon APJ, the receptor for apelin (Fan et al., 2003; Kawamata et al., 2001) (FIG. 12). APJ belongs to the large family of G-protein-coupled receptors (GPCRs) involved in cell signaling with more than 1000 members in man (Puffer et al., 2000). All GPCRs are characterized by having 7 transmembrane helices (7-TM). Some of the receptors respond to peptide ligands such as apelin. […]

human cells = assay: Infection of human cells; assay type: cell-based; conditions: qualitative

B1: SL3-2/apelin chimeric envelope polypeptide 'AP165 RT' (other)
chain: VQHDSPHQVFNVTWRVTNLMTGQTANATSLLGTMTDAFPKLYFDLCDLIGDDWDETGLGCRTPGGRKRARIFDFYVCPGHTVLAGCGGPREGYCGKWGCETTGQAYWKPSSSWDLISLKRGNTPKGQGPCYDSSGGSGQRPRLSHKGPMPFSGGSGSSSAQGATPGGRCNPLVLEFTDAGKRASWDASKAWGLRLYRSTRTDPVTRFSLTRQVLNIGPRVPIGPNPVIIDQLPPSRPVQVMLPRPPQPPPPGAASTVPETAPPSQQPGTGDRLLNLVNGAYQALNLTSPDKTQECWLCLVAGPPYYEGVAVLGTYSNHTSAPANCSVASQHKLTLSEVTGQGLCVGAVPKTHQALCNTTQKTSNGSYYLAAPAGTIWACNTGLTPCLSTTVLDLTTDYCVLVELWPKVTYHSPGYVYGQFEEKTKYKREPVSLTLALLLGGLTMGGIAAGVGTGTTALVATQQFQQLQAAMQDDLKEVEKSITNLERSLTSLSEVVLQNRRGLDLLFLKEGGLCAALKEECCFYADHTGLVRDSMAKLRERLSQRQKLFESQQGWFEGLFNKSPWFTTLISTIMGPLIILLLILLFGPCILNHLVQFIKDRVSVVQALVLTQQYHQLKTIEDCESRE
- Titer on D17 APJ (Titer Experiment 1; unit not given) (APJ): 2.5e+06
- Titer on NIH 3T3 (Titer Experiment 1; unit not given) [1]: 3e+06

B2: SL3-2/apelin chimeric envelope AP@165 GI (other)
chain: B1 chain with R200G, T201I
- Titer on D17 APJ (Titer Experiment 1; unit not given) (APJ): 1.25e+06
- Titer on NIH 3T3 (Titer Experiment 1; unit not given) [1]: 4e+06
- Titer, NIH 3T3 (NIH 3T3): 4 × 10^6
- Titer, NIH 3T3 MCF 247 (NIH 3T3 MCF 247): 0
- Titer, D17 (D17): 1.25 × 10^1
- Titer, D17 APJ (D17 APJ): 1.25 × 10^6

B3: SL3-2/apelin chimeric envelope peptide, "Apelin@155 RT" (other)
chain: VQHDSPHQVFNVTWRVTNLMTGQTANATSLLGTMTDAFPKLYFDLCDLIGDDWDETGLGCRTPGGRKRARIFDFYVCPGHTVLAGCGGPREGYCGKWGCETTGQAYWKPSSSWDLISLKRGNTQGIYQCSGGSGQRPRLSHKGPMPFSGGSGCGPCYDSSVVSSSAQGATPGGRCNPLVLEFTDAGKRASWDASKAWGLRLYRSTRTDPVTRFSLTRQVLNIGPRVPIGPNPVIIDQLPPSRPVQVMLPRPPQPPPPGAASTVPETAPPSQQPGTGDRLLNLVNGAYQALNLTSPDKTQECWLCLVAGPPYYEGVAVLGTYSNHTSAPANCSVASQHKLTLSEVTGQGLCVGAVPKTHQALCNTTQKTSNGSYYLAAPAGTIWACNTGLTPCLSTTVLDLTTDYCVLVELWPKVTYHSPGYVYGQFEEKTKYKREPVSLTLALLLGGLTMGGIAAGVGTGTTALVATQQFQQLQAAMQDDLKEVEKSITNLERSLTSLSEVVLQNRRGLDLLFLKEGGLCAALKEECCFYADHTGLVRDSMAKLRERLSQRQKLFESQQGWFEGLFNKSPWFTTLISTIMGPLIILLLILLFGPCILNHLVQFIKDRVSVVQALVLTQQYHQLKTIEDCESRE
- Titer on D17 APJ (Titer Experiment 1; unit not given) (APJ): 1750
- Titer on NIH 3T3 (Titer Experiment 1; unit not given) [1]: 500000

B4: SL3-2/apelin chimeric envelope peptide, "Apelin@155 GI" (other)
chain: B3 chain with R206G, T207I
- Titer on D17 APJ (Titer Experiment 1; unit not given) (APJ): 400
- Titer on NIH 3T3 (Titer Experiment 1; unit not given) [1]: 750000

B5: AP@155: SL3-2 envelope with apelin inserted at position 155 (variant not specified) (protein)
chain: B3 chain with R206G, T207I
- APJ-dependent entry / membrane fusion into D17 dog cells (D17 APJ; qualitative, FIG. 12): suboptimal relative to AP@165

B6: 155GI (protein)
chain: B3 chain with R206G, T207I
- Titer, NIH 3T3 (NIH 3T3): 7.5 × 10^5
- Titer, NIH 3T3 MCF 247 (NIH 3T3 MCF 247): 0.25 × 10^1
- Titer, D17 (D17): 2.5
- Titer, D17 APJ (D17 APJ): 4 × 10^2

B7: SL3-2GI (protein)
chain: VQHDSPHQVFNVTWRVTNLMTGQTANATSLLGTMTDAFPKLYFDLCDLIGDDWDETGLGCRTPGGRKRARIFDFYVCPGHTVLAGCGGPREGYCGKWGCETTGQAYWKPSSSWDLISLKRGNTPKGQGPCYDSSVVSSSAQGATPGGRCNPLVLEFTDAGKRASWDASKAWGLRLYRSTGIDPVTRFSLTRQVLNIGPRVPIGPNPVIIDQLPPSRPVQIMLPRPPQPPPPGAASTVPETAPPSQQPGTGDRLLNLVNGAYQALNLTSPDKTQECWLCLVAGPPYYEGVAVLGTYSNHTSAPANCSVASQHKLTLSEVTGQGLCVGAVPKTHQALCNTTQKTSNGSYYLAAPAGTIWACNTGLTPCLSTTVLDLTTDYCVLVELWPKVTYHSPGYVYGQFEEKTKYKREPVSLTLALLLGGLTMGGIAAGVGTGTTALVATQQFQQLQAAMQDDLKEVKKSITNLERSLTSLSEVVLQNRRGLDLLFLKEGGLCAALKEECCFYADHTGLVRDSMAKLRERLSQRQKLFESQQGWFEGLFNKSPWFTTLISTIMGPLIILLLILLFGPCILNHLVQFIKDRVSVVQALVLTQQYHQLKTIEDCESRE
- Infection of dog cells (D17; qualitative): not dog cells
- Infection of human cells (human cells): infects human cells
